Residue numbers refer to the chain shown, from its start.
B1: AB-09: Prior art anti-PSMA antibody, heavy chain SEQ ID No 15, light chain SEQ ID No 16 (antibody, V domains shown)
VH: MELGLRWVLLVALLRGVQCQVQLVESGGGVVQPGRSLRLSCAASGFTFSNYVMHWVRQAPGKGLEWVAIIWYDGSNKYYADSVKGRFTISRDNSKNTLYLQMNSLRAEDTAVYYCAGGYNWNYEYHYYGMDVWGQGTTVTVSS
VL: MRVPAQLLGLLLLCFPGARCDIQMTQSPSSLSASVGDRVTITCRASQGITNYLAWFQQKPGKAPKSLIYAASSLQSGVPSKFSGSGSGTDFSLTISSLQPEDFATYYCQQYNSYPITFGQGTRLEIK
B2: AB-03: Humanised anti-PSMA antibody, heavy chain SEQ ID No 7, light chain SEQ ID No 8 (antibody, V domains shown)
VH: EVQLVQSGAEVKKPGASVKVSCKASGYTFTEYTIHWVRQAPGKGLEWIGNINPNNGGTTYNQKFEDRVTITVDKSTSTAYMELSSLRSEDTAVYYCAGGWTFDYWGQGTTVTVSS
VL: DIQMTQSPSTLSASVGDRVTITCKASQDVGTAVDWYQQKPGQAPKLLIYWASTRHTGVPDRFSGSGSGTDFTLTISRLQPEDFAVYYCQQFTRYPLTFGQGTKVDIK
B3: AB-04: Humanised anti-PSMA antibody, heavy chain SEQ ID No 9, light chain SEQ ID No 8 (antibody, V domains shown)
VH: B2 VH with G99A, F102M
VL: B2 VL
B4: AB-05: Humanised anti-PSMA antibody, heavy chain SEQ ID No 5, light chain SEQ ID No 10 (antibody, V domains shown)
VH: B2 VH with G98A, G99Y, T101L
VL: B2 VL with F91Y, T92N, R93A, P95S

Experiment: Heat stress test, aggregation analysed by SEC
Format: physicochemical
Conditions: heat stress test, in words
Protocol: Antibody samples (0.5 mg/mL in PBS) were incubated at 75° C. for 30 min followed by incubation in an ice-bath for 5 min prior to being analysed for their extent of aggregation. Analysis of antibody solutions was carried out by Size Exclusion Chromatography (SEC) and by turbidity measurements.
SEC was performed using a TOSOH Bioscience TSK gel Super SW 3000 column. UV absorbance at 280 nm was monitored during an isocratic elution with a 0.2 M Potassium phosphate buffer, pH 6.8 (0.2 M potassium chloride and 15% isopropanol). The elution times and number of peaks indicate whether the sample contains aggregated, degraded or native antibody. The % area under the curve (Abs280) was used to determine the quantity of each species present in the SEC analysis.

Molecule | Stability compared with AB-02 to AB-06 antibodies
B1 | less stable

Same assay, conditions: post stress test: 0.5 mg/mL in PBS, 75° C. for 30 min; SEC % area

Molecule | Ab in aggregated form (%) | Ab in native conformation (%)
B2 | 64% | 36%
B3 | 73% | 27%
B4 | 98% | 2%
B1 | 100% | 0%
